These results are taken from article PMC10445657.

The target of the data set is T1, RORα S100D (human, UniProt P35398 1-523, S100D).
T1 sequence: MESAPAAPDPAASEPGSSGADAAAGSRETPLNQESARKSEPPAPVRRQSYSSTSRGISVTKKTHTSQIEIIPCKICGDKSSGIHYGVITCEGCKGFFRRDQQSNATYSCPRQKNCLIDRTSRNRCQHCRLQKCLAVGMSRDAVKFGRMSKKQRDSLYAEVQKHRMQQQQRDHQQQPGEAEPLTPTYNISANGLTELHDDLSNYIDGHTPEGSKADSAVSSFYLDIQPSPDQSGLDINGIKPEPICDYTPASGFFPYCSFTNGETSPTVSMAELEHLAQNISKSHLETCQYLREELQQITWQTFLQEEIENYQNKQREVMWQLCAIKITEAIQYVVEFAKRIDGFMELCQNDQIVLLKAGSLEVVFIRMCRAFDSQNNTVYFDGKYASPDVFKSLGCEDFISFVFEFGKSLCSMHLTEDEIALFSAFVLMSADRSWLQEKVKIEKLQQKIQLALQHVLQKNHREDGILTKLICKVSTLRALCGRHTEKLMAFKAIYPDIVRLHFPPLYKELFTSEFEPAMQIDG
In words: EMSA. In general terms: In EMSA bound probe runs differently from free probe, usually more slowly.

B1: RORE probe (dsDNA)
DNA 1: GATCTCGACTCGTATATCAAGGTCATGCTG
DNA 2: CAGCATGACCTTGATATACGAGTCGAGATC
As to B1, the binding result is “no binding”.

B2: HRE probe (dsDNA)
DNA 1: GATCTCGACAGTGACCCTTTTAACCAGGTCAGTGAG
DNA 2: CTCACTGACCTGGTTAAAAGGGTCACTGTCGAGATC
Take B2: the binding result is reported as “no binding”.
